Data on four substances can be found in patent US20100273704A1.

The target of the assay is BCL-XL ΔC [GST: P08515]. In words: fluorescence polarization. In general terms: In fluorescence polarisation assays a small probe gives low polarisation when free and higher when bound to something large.

For orientation: EC50 means the concentration giving half of the maximal effect. Substance BAD SAHBA showed a concentration giving a half-maximal response (EC50) of 40.2 nM. BID SAHBA: the half-maximal effective concentration (EC50) turned out to be 35.3 nM. In the case of BAD SAHBA(S→D) it was more than 10000 nM; in that of BAD SAHBA(L,D→A), 333 nM.
